Test results as given in the supplement of paper PMC10567573.

Assay: protein stability index of a GFP-peptide fusion (GPS, HEK-293T) (PSI 1-6); higher = more stable
Settings: parent: NP_006221.1; c terminus: native
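Also: lentivirally expressed fusion library, cells FACS-sorted into six equal-sized GFP/DsRed ratio bins, PSI computed from sequencing read fractions per bin weighted by bin number.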

## CQPISFSGFGAEDDDLGGLGLGPRQ [POLD2 addRQ]
  protein stability index: 4.81
